Assay results taken from the supplement of paper PMC10567573.
± gives the standard deviation.

Assay: protein stability index of a GFP-peptide fusion (GPS, HEK-293T) (PSI 1-6); higher = more stable
Settings: c terminus: a fixed tail appended
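Further: 24-mer peptide tiles fused after GFP, lentivirally expressed, FACS-sorted into six equal bins by GFP/DsRed ratio, decoded by Illumina sequencing, PSI is the read-weighted mean bin number.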

Sequence	protein stability index (treatment: DMSO)	protein stability index (treatment: MLN4924 1 uM, 8 h)
TPDIKSHYAFRIFDFDDDGTLNRE [CIB1]	3.55 ± 0.15	3.44 ± 0.21
SVMYRKWKESKGKDREYTDIIRKQ [CDC34]	3.52 ± 0.18	3.76 ± 0.25
INVWDVLKGSRVSILFGHENRVST [GNB5]	2.31 ± 0.33	2.27 ± 0.34
LEDMGQPPAEEAEQPGALAREFLA [FKBP8]	5.15 ± 0.19	5.38 ± 0.2
LMDVTGGPFDLMSRRVIAANNRIL [IMPA1]	2.75 ± 0.17	2.69 ± 0.2
GGGYSSVRYSDCCERVVINVSGLR [KCNA4]	2.23 ± 0.26	2.34 ± 0.29
KENEMMKSHVMDQAINNAINYLGA [IKZF1]	3.24 ± 0.089	2.87 ± 0.3
ENIQDITVNIHRLHVKRSMGWKKA [ZMYND11]	2.98 ± 0.26	3.22 ± 0.49
YFFCENDAEFLCVFCREGPTHQAH [TRIM15]	2.26 ± 0.35	2.33 ± 0.54
QGNGLFYSSGPQSWYPKANNQDFI [ZC2HC1C]	2.6 ± 0.16	2.85 ± 0.051
RRNSEFEIFVDCDINREQLNDIFH [TPH1]	2.55 ± 0.096	2.73 ± 0.27
VNLLHIESRKSKRRNSEFEIFVDC [TPH1]	2.26 ± 0.52	2.4 ± 0.35
LMDIVPADDHRYKFADNKWSVTGK [TBX5]	3.63 ± 0.29	3.54 ± 0.15
HSGSVVGAGLPQFQSISLRKIQFN [CLCN6]	2.85 ± 0.24	3 ± 0.27
HGSQGTYSNTKENGINGELTSADR [MAP2]	5.11 ± 0.24	5.17 ± 0.22
YLEGFDPFNQSTFNNVVEQNFKNR [DLC1]	2.89 ± 0.26	3.15 ± 0.39
LRLHDNPALKECIQGADTIRCVYI [CRY1]	2.6 ± 0.38	2.41 ± 0.3
ENAPIGTLLLRLNATDPDEGTNGQ [PCDHGC5]	4.95 ± 0.15	4.92 ± 0.18
HVMGLYPDLLPTDYRKQLQYPNPL [VPS39]	2.34 ± 0.28	2.59 ± 0.24
KAQAKVGSLDNAHHVPGGGNVKID [MAP2]	4.85 ± 0.12	4.87 ± 0.34
PEGKRVPKRLRCWEEEEDHEKERP [FANCE]	5.21 ± 0.25	5.26 ± 0.27
LSETADPFFVLNSDVICDFPFQAM [GMPPB]	2.44 ± 0.26	2.6 ± 0.35

Sequence	protein stability index (treatment: DMSO)	protein stability index (treatment: MLN4924 1 uM, 8 h)
TQYFAELLMTSGVVLCEGVKWLSF [CNOT7]	3.25 ± 0.2	3.56 ± 0.19
KSPLHMTAVHGRFTRSQTLIQNGG [ANKRD44]	3.28 ± 0.24	3.45 ± 0.18
VSSDGTLKYMEVTLRPTDSQSHCY [PCDHGC5]	2.8 ± 0.38	2.65 ± 0.23
DQEIKFFRCLFEAEITQIQSHISD [KRT71]	2.25 ± 0.36	2.34 ± 0.77
LQNKVPLLGSSTACIVVLDRTSHR [PPTC7]	2.14 ± 0.16	2.32 ± 0.33
IGGHLVRDNDHPDHSSRELSKILA [FUT8]	3.92 ± 0.19	3.9 ± 0.18
ARSGHRCVADNTNLYVFGGYNPDY [KLHDC10]	2.23 ± 0.22	2.3 ± 0.36
GNGKNLVDFTFVENVVHGHILAAE [NSDHL]	3.08 ± 0.36	2.91 ± 0.51
RARGWAAAARAAQRRRRVENAGGS [RSAD1]	4.48 ± 0.19	4.77 ± 0.17
LFDLMRRMLEFDPAQRITLAEALL [CLK3]	2.05 ± 0.6	2.19 ± 0.11
SDAIRVVNAVLTQIDQIKRHSNVV [TRIP13]	2.33 ± 0.2	2.35 ± 0.21
GKFIRLKNTSEQDQPMGGWEMIRK [LMNB1]	3.73 ± 0.083	3.7 ± 0.2
PMVRKRSVSNSTQTSSSSSQSETS [DLC1]	5.26 ± 0.21	5.3 ± 0.33
RSSHLVIHERTHERERLYPFSECG [ZNF263]	2.93 ± 0.21	3.25 ± 0.3
IVKQMKIIHEAGYSEEECKQYKAV [GNAI1]	3.13 ± 0.22	3.77 ± 0.23
GGYETFYSEYPECCVDVKPISQEK [DUSP5]	4.25 ± 0.29	4.22 ± 0.18
VTDEEIESLMKDGDKNNDGRIDFD [TNNC2]	5.52 ± 0.14	5.46 ± 0.3
KYLKLQDTCRTQLVWLVRELVKSG [INTS3]	2.94 ± 0.82	2.6 ± 0.83
RNPGPGRHRLITQVYLSHTAWTEA [INTS4]	2 ± 0.23	2.29 ± 0.35
RHKQPTLLMVRASRRSGKTSAVLK [C6orf223]	3.29 ± 0.26	3.45 ± 0.24
LALCPANHAPLREQGAIPRLVQLL [CTNNB1]	2.39 ± 0.21	2.59 ± 0.21
LAAAPEGLEDAGLDPHFVPTELWP [TEX19]	4.06 ± 0.11	4.19 ± 0.24
